T1: SIV CPZ US-1 gp140CF (SIVcpz)
T1 construct: also called US-1 SIVCPZ gp140CF
T1 chain: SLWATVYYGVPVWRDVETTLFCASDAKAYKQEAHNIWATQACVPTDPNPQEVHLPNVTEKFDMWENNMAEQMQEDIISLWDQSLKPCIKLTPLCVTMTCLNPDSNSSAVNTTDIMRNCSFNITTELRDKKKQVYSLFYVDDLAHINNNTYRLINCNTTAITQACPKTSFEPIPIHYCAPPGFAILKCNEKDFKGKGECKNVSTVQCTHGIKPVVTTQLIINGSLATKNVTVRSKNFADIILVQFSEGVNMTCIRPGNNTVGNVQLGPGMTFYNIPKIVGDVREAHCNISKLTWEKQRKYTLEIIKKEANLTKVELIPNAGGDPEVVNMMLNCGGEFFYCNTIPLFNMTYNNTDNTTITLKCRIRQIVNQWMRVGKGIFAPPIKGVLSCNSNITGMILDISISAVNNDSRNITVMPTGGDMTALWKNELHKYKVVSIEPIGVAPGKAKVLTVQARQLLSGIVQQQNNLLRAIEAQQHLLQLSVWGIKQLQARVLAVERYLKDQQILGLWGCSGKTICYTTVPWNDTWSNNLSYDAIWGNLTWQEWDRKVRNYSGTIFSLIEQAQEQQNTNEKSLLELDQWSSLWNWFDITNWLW


Experiments:
AE.A244 V1V2 Tags [1] = target: AE.A244 V1V2 Tags (HIV-1); experiment: ELISA OD405nm, antibody at 33, 11.1 and 1.2 ug/ml
AE.A244 V1V2 Tags [2] = target: AE.A244 V1V2 Tags (HIV-1); experiment: ELISA OD405nm, bar chart, antibody concentration not given
AE.97CNG2XF gp140CF = target: T2, AE.97CNG2XF gp140CF (HIV-1); experiment: ELISA
T2 construct: also called E.97CNGX2F gp140CF

AE.A244 gD+ gp120 = target: T3, AE.A244 gD+ gp120 (HIV-1); experiment: ELISA
T3 construct: domain: gp120; also called AE.A244 gp120gD+

B.HXB/BAL gp140CFI = target: T4, B.HXB/BAL gp140CFI (HIV-1, UniProt P04578 33-680); experiment: ELISA
T4 construct: also called B.HxB/Ba gp140 CFI

C.1086 gp120 = C.1086 gp120 (HIV-1); experiment: ELISA
B.9021 gp140C = B.9021 gp140C (HIV-1); experiment: ELISA
AE.92TH023 gp120 gD+ = target: T5, AE.92TH023 gp120 gD+ (HIV-1); experiment: ELISA
T5 construct: domain: gp120; also called AE.92TH023 gp12 gD+

SIV CPZ US-1 gp140CF = target: T1, SIV CPZ US-1 gp140CF; experiment: ELISA

Row | Binder | binding result (AE.A244 V1V2 Tags [1]) | binding result (AE.A244 V1V2 Tags [2]) | EC50 (AE.97CNG2XF gp140CF) [µg/mL] | EC50 (AE.A244 gD+ gp120) [µg/mL] | binding result (B.HXB/BAL gp140CFI) | EC50 (C.1086 gp120) [µg/mL] | binding result (B.9021 gp140C) | EC50 (AE.92TH023 gp120 gD+) [µg/mL] | binding result (SIV CPZ US-1 gp140CF)
1 | CH01 RUA 1 (antibody, V domains shown) VH: EVQLVESGGGVVRPGGSLRLSCAASGFTFDDYGMSWVRQAPGKGLEWVSGINWNGGSTGYADSVKGRFTISRDNAKNSLYLQMNSLRAEDTALYYCARGTDYTIDDQGIRYQGSGTFWYFDLWGRGTLVTVSS VL: not shown | binds |  |  |  |  |  |  |  | 
2 | CH01 RUA 2 (antibody, V domains shown) VH: EVQLVESGGGVVRPGGSLRLSCAASGFTFDDYGMSWVRQAPGKGLEWVSGINWNGGSTGYADSVKGRFTISRDNAKNSLYLQMNSLRAEDTALYYCARGTDYTIDDQGILYQGSGTFWYFDLWGRGTLVTVSS VL: not shown |  | binds |  |  |  |  |  |  | 
3 | HG107 (antibody, V domains shown, also called mAb HG107) VH: EVQLVESGGDLVQPGRSLRLSCAASGFTFDDYAMHWVRQAPGKGLEWISGISGNSGSRGYADSVKGRFTISRDNAKNSLYLQMNSLRAEDTALYYCATDGDRSGTTPLDHWGQGTRVTVSS VL: SYELTQPPSVSVSPGQTARITCSGDALPKNYAYWYQQKSGQAPALVIYEDSKRPSGIPERFSGSSSGTMATLTISGAQVEDEADYYCYSTDSSGTPSFGTGTKVTVL |  |  | 0.055 | 0.03 | no binding | 0.03 | no binding | 0.04 | no binding
4 | HG120 (antibody, V domains shown, also called mAb HG120) VH: EVQLVESGGGLVQPGGSLRLSCAASGFTFSSYAMRWVRQAPGKGLEWVSGISGSGGSTYYADSVKGRFTISRDNSKITLYLQMDSLRVEDTAVYYCATAPLSYDSSTDYWGQGTLVTVSS VL: SYELTQPPSVSVSPGQTARITCSGDALPKKYAYWYQQKSGQAPVLVIYEDSKRPSGIPERFSGSSSGTMATLTISGAQVEDEADYYCYSTDSSGNPRFGRGTKLTVL |  |  | 0.06 | 0.02 | no binding | 0.02 | no binding | 0.02 | no binding
